Experimental findings from article PMC3919625 are described below.

The target in this assay is 2G12 IgG monomer (human). The experiment in a line: SEC. (In general: Size exclusion chromatography separates by hydrodynamic size, large species first.)

B1: soluble neonatal Fc receptor (FcRn) (receptor)
chain 1: AEPRLPLMYHLAAVSDLSTGLPSFWATGWLGAQQYLTYNNLRQEADPCGAWIWENQVSWYWEKETTDLKSKEQLFLEAIRTLENQINGTFTLQGLLGCELAPDNSSLPTAVFALNGEEFMRFNPRTGNWSGEWPETDIVGNLWMKQPEAARKESEFLLTSCPERLLGHLERGRQNLEWKEPPSMRLKARPGNSGSSVLTCAAFSFYPPELKFRFLRNGLASGSGNCSTGPNGDGSFHAWSLLEVKRGDEHHYQCQVEHEGLAQPLTVDLDSPARSS
chain 2: IQKTPQIQVYSRHPPENGKPNFLNCYVSQFHPPQIEIELLKNGKKIPNIEMSDLSFSKDWSFYILAHTEFTPTETDVYACRVKHVTLKEPKTVTWDRDM
The molecule B1 showed a stoichiometry N (FcRn per 2G12 monomer) of 2.
